From patent US20250282880A1 (NUMAB THERAPEUTICS, published 2025)
Residue numbers refer to the chain shown, from its start. Names and notes keep the numbering of the source. Like-named read-outs stand apart in the source and are kept apart here.

B1: PRO1899 (scFv)
scFv: DIQMTQSPSSLSASVGDRVTITCQASEDIESYLAWYQQKPGKAPKLLIYRASTLAYGVPSRFSGSGSGTDFTLTISSLQPEDFATYYCLGSSYSTGSNIFGTGTKVTVLGGGGGSGGGGSGGGGSGGGGSEVQLVESGGGRVQPGGSLRLSCAASGFSSSSAHYMCWVRQAPGKGLEWIGCIYAGSRGSTYYASWAKGRFTISKASSTTVYLQMNSLRAEDTATYYCARAAFVNRGVSWIWPYYFSLWGQGTQVTVSS
notes: optimized variant of PRO1517 (VH L12R, V103T, L144Q and RDNSKN changed to KASST, AHo 82-87); scFv VL-linker-VH; also called 44-34-C10-sc09
B2: PRO1517 (scFv)
scFv: DIQMTQSPSSLSASVGDRVTITCQASEDIESYLAWYQQKPGKAPKLLIYRASTLAYGVPSRFSGSGSGTDFTLTISSLQPEDFATYYCLGSSYSTGSNIFGTGTKVTVLGGGGGSGGGGSGGGGSGGGGSEVQLVESGGGLVQPGGSLRLSCAASGFSSSSAHYMCWVRQAPGKGLEWIGCIYAGSRGSTYYASWAKGRFTISRDNSKNTVYLQMNSLRAEDTAVYYCARAAFVNRGVSWIWPYYFSLWGQGTLVTVSS
notes: humanized scFv (VL-linker-VH), CDR graft of rabbit clone 44-34-C10; also called 44-34-C10-sc01; 44-34-C10 sc01
B3: PRO1535 (scFv)
scFv: B2 scFv with A43P, V132S, G180A, R204K, Y227F
notes: humanized scFv (VL-linker-VH), Full graft of rabbit clone 44-34-C10; also called 44-34-C10-sc04; 44-34-C10 sc04

What was measured:
IL-4R on HEK-Blue cells [1] = target: T1, IL-4R on HEK-Blue cells (human, UniProt P24394 26-825); assay: cell-based or functional assay
cynomolgus IL-4R-Fc [2] = target: T2, cynomolgus IL-4R-Fc (cynomolgus monkey (Macaca fascicularis), UniProt A0A2K5V580 33-239); assay: SPR, capture setup: cynomolgus IL-4R-Fc captured, scFv as analyte
T2 construct: also called cynomolgus IL-4R (capture setup); not shown: Fc part

Human IL-4R-Fc [3] = target: T3, Human IL-4R-Fc (human, UniProt P24394 26-232); assay: SPR (Biacore T200), human IL-4R-Fc captured, scFv as analyte 0.12 to 90 nM, 1:1 model
T3 construct: not shown: Fc part (captured via anti-human IgG-Fc)
Description: (§1) Affinity of the 16 humanized scFvs (derived from 5 rabbit monoclonal antibodies) to human IL-4R was determined by SPR analysis on a T200 device (Biacore, GE Healthcare). Human IL-4R-Fc was captured via an anti-human IgG-Fc coupled to a carboxylmethylated dextran surface and the scFvs were injected as analyte. After each analyte injection cycle the sensor chip was regenerated and new antigen was captured. The scFvs were measured using a dose response multi-cycle kinetic assay with seven analyte concentrations ranging from 0.12 to 90 nM diluted in running buffer. Obtained sensorgrams were fitted using a 1:1 binding model.
The scFvs were measured using a dose response multi-cycle kinetic assay with seven analyte concentrations ranging from 0.12 to 90 nM diluted in running buffer. Obtained sensorgrams were fitted using a 1:1 binding model.

Biotinylated IL-4R [4] = target: T4, Biotinylated IL-4R (human, UniProt P24394 26-232, limits assumed, biotinylated); assay: competitive ELISA: IL-4 coated, biotinylated IL-4R preincubated with scFv
T4 construct: also called human IL-4R; hIL-4R
Excerpt: (§2) Bound biotinylated IL-4R was then detected using streptavidin-HRP.

Human IL-4R-Fc [5] = target: T3, Human IL-4R-Fc; assay: SPR (Biacore T200), human IL-4R-Fc captured via anti-human IgG-Fc, scFv as analyte, 1:1 model
Description: as §1

Marmoset IL-4R ECD = target: T5, Marmoset IL-4R ECD (marmoset (Callithrix jacchus), UniProt Q0PIT7 26-232); assay: SPR, direct setup: marmoset IL-4R ECD immobilized, scFv as analyte
T5 construct: also called marmoset monkey IL-4R
T5 sequence (Q0PIT7 entry or part of it limits assumed): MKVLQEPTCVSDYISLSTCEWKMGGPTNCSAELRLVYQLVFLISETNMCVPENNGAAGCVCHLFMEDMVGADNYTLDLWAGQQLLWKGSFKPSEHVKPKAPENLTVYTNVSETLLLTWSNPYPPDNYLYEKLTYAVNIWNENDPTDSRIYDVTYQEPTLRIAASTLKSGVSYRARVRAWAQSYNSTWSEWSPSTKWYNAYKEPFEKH
Description: (§3) Cross-reactivity to cynomolgus IL-4R was measured using the same setup as for the analysis of human IL-4R affinities, with the difference that cynomolgus IL-4R-Fc was captured instead of human IL-4R-Fc. To determine affinities for marmoset IL-4R, a direct setup was used since only extracellular domain (ECD) of marmoset IL-4R was available. Marmoset ECD was immobilized directly onto the sensor chip and a titration series of scFvs was injected as analyte. To allow for comparison between KD values obtained for cynomolgus and marmoset IL-4R, affinities to cynomolgus IL-4R ECD were also determined using a direct setup.

Biotinylated IL-4R [6] = target: T4, Biotinylated IL-4R; assay: competitive ELISA: IL-4 coated, biotinylated IL-4R preincubated with scFv; remark: listed apart in the source
Excerpt: as §2
Potency of humanized scFvs was further determined using a competitive ELISA.

cynomolgus IL-4R-Fc [7] = target: T2, cynomolgus IL-4R-Fc; assay: SPR, capture setup: cynomolgus IL-4R-Fc captured, scFv as analyte; remark: listed apart in the source
Description: as §1, §3

IL-4R on HEK-Blue cells [8] = target: T1, IL-4R on HEK-Blue cells; assay: cell-based or functional assay; remark: listed apart in the source
cynomolgus IL-4R ECD = target: T6, cynomolgus IL-4R ECD (cynomolgus monkey (Macaca fascicularis), UniProt A0A2K5V556 26-232); assay: SPR, direct setup: cynomolgus IL-4R ECD immobilized, scFv as analyte
T6 construct: immobilized directly on the sensor chip; also called cynomolgus IL-4R (direct setup)
T6 sequence (A0A2K5V556 entry or part of it limits assumed): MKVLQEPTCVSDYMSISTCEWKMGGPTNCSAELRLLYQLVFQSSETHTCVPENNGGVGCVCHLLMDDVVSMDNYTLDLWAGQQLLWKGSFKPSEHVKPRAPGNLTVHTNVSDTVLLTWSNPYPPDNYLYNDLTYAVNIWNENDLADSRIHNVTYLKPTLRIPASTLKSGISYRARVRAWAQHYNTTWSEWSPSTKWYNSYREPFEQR
Description: as §3

Row | Kd (Human IL-4R-Fc [5]) | koff (Human IL-4R-Fc [5]) | kon (Human IL-4R-Fc [5]) | Kd (Marmoset IL-4R ECD) | koff (Marmoset IL-4R ECD) | kon (Marmoset IL-4R ECD) | IC50 (Biotinylated IL-4R [6]) | rel. IC50 (IC50, dupilumab/IC50, test sample) (Biotinylated IL-4R [6]) | Kd (cynomolgus IL-4R-Fc [7]) | koff (cynomolgus IL-4R-Fc [7]) | kon (cynomolgus IL-4R-Fc [7]) | IC50, neutralization of hIL-4-induced signaling in reporter gene assay (IL-4R on HEK-Blue cells [8]) | IC50, neutralization of hIL-13-induced signaling in reporter gene assay (IL-4R on HEK-Blue cells [8]) | rel. IC50 (IC50, dupilumab/IC50, test sample), hIL-4-induced signaling (IL-4R on HEK-Blue cells [8]) | rel. IC50 (IC50, dupilumab/IC50, test sample), hIL-13-induced signaling (IL-4R on HEK-Blue cells [8]) | Kd (cynomolgus IL-4R ECD) | koff (cynomolgus IL-4R ECD) | kon (cynomolgus IL-4R ECD) | also measured | Binder
1 |  |  |  |  |  |  |  |  |  |  |  |  |  |  |  |  |  |  | IC50, neutralization of hIL-4 induced signaling in reporter gene assay (IL-4R on HEK-Blue cells [1]): 0.71 ng/mL; IC50, neutralization of hIL-13 induced signaling in reporter gene assay (IL-4R on HEK-Blue cells [1]): 0.56 ng/mL; rel. IC50 (IC50, dupilumab/IC50, test sample), hIL-4 induced signaling (IL-4R on HEK-Blue cells [1]): 1.61 ratio; rel. IC50 (IC50, dupilumab/IC50, test sample), hIL-13 induced signaling (IL-4R on HEK-Blue cells [1]): 1.8 ratio; Kd (cynomolgus IL-4R-Fc [2]): 0.012 nM; koff (cynomolgus IL-4R-Fc [2]): 0.00014 s⁻¹; kon (cynomolgus IL-4R-Fc [2]): 1.1e+07 M⁻¹ s⁻¹; Kd (Human IL-4R-Fc [3]): 0.00692 nM; koff (Human IL-4R-Fc [3]): 2.04e-05 s⁻¹; kon (Human IL-4R-Fc [3]): 2.95e+06 M⁻¹ s⁻¹; IC50 (Biotinylated IL-4R [4]): 2.98 ng/mL; rel. IC50 (IC50, dupilumab/IC50, test sample) (Biotinylated IL-4R [4]): 2.07 ratio | B1
2 | 0.0055 nM | 1.95e-05 s⁻¹ | 3.55e+06 M⁻¹ s⁻¹ | 0.392 nM | 0.00105 s⁻¹ | 2.67e+06 M⁻¹ s⁻¹ | 0.54 ng/mL | 3.46 ratio | 0.0946 nM | 0.000182 s⁻¹ | 1.92e+06 M⁻¹ s⁻¹ | 1.44 ng/mL | 1.83 ng/mL | 0.39 ratio | 0.57 ratio | 0.681 nM | 0.000404 s⁻¹ | 594000 M⁻¹ s⁻¹ |  | B2
3 | 0.0199 nM | 5.42e-05 s⁻¹ | 2.72e+06 M⁻¹ s⁻¹ | 0.787 nM | 0.00254 s⁻¹ | 3.23e+06 M⁻¹ s⁻¹ | 1.92 ng/mL | 0.98 ratio | 0.165 nM | 0.000264 s⁻¹ | 1.6e+06 M⁻¹ s⁻¹ | 1.15 ng/mL | 2.3 ng/mL | 1.02 ratio | 0.99 ratio | 0.376 nM | 0.000238 s⁻¹ | 634000 M⁻¹ s⁻¹ |  | B3
